According to publication PMC5726854:
pKd: −log10 of the molar value. Values belong to the substance of their own block, whether it stands above or below them.

How the values were obtained:
[1] = molecular target: E. coli ribosomes (E. coli); assay: FRAP (diffusion coefficient in living cells); E. coli cytoplasm, 30°C, 0.28 Osm; fraction bound from the effective diffusion coefficient (Equation 1); Kd per binding site from Equation 2 with 660 µM binding sites assumed
[2] = molecular target: Hfx. volcanii ribosomes (Haloferax volcanii (endogenous in H1895)); assay: FRAP (diffusion coefficient in living cells); Hfx. volcanii cytoplasm, 30°C; fraction bound from the effective diffusion coefficient; Kd per binding site with the ribosome concentration assumed as in E. coli
[3] = molecular target: L. lactis ribosomes (Lactococcus lactis (endogenous in NZ9000)); assay: FRAP (diffusion coefficient in living cells); L. lactis cytoplasm, 30°C; fraction bound from the effective diffusion coefficient; Kd per binding site with the ribosome concentration assumed as in E. coli

pKd [1]: 5.17 | fraction bound [1]: 0.99
Substance: +25 GFP

pKd [2]: 3.81 | fraction bound [2]: 0.81
Substance: +25 GFP (expressed in Hfx. volcanii)

pKd [3]: 4.19
Substance: +25 GFP (expressed in L. lactis)
